We go through 20 sequences from the DeepSol protein solubility set.

This data set in a line: soluble on expression in E. coli; label from the status in PepcDB or PDB records.
For the sequence “MAHHHHHHMSTTNPTGETTEWDDLQRKYGNLPPLQKEVKEEEIYLNKLEKLEGVNPLEKKNLHELTLLEENCVDEDYLKIIEKHKANRIKEINRSRALDVFGTVYEISKDNFLTEVNEASKRNPLGEHGGRSMESTRGDEDLEEDEEQGVAASSTEGTEGTHVVIHLYSDNVLACKVINSILIQMARKHKYVKFTKGVYNRIVENYPESKLPTLLIYYNGTCIHQICNLLNNIKGGMNNLSLKTFERLMEKYNILRYPSSWMNSRQSVSDHSVNSSDVDSEEGSRYAEKGTRVRTHKQYTSFNMFDSKYTSRDYSSDEDRELKSRGYASSMLDKKVSRNEL”, the “soluble on expression in E. coli” value is reported as “not soluble”.

Regarding “MADLRKAARGRECQVRIPGVCNGNPETSVLAHIRLTGLCGTGTKPPDLIATIACSACHDEIDRRTHFVDAGYAKECALEGMARTQVIWLKEGVIKA”, the “soluble on expression in E. coli” value is “soluble”.

On to “MGSDKIHHHHHHMVKVSIICTNYNKGSWIGEAIDSFLKQETSFPYEIIIVDDASTDHSVHIIKTYQKQYPDLIRAFFNQENQGITKTWSDICKKARGQYIARCDGDDYWIDPFKLQKQIDLLETSPESKWSNTDFDMVDSKGNIIHKDVLKNNIIPFMDSYEKMLALKGMTMASTWLVETKLMLEINDRINKDAVDDTFNIQLELFKKTKLAFLRDSTTVYRMDAESDSRSKDSEKLAQRFDRLLETQLEYIEKYPDSDYKKVLEYLLPKHNDFEKVLAQDGKNVWDNQQITIYLAKGDDQEFSEENCFQFPLQHSGNIQLTFPENIRKIRIDLSEIPSYYRQVSLVNTTVNTELLPTWTNAKVFGYSYYFIAPDPQMIYDLTAQEGQDFKLTYEWFNVDRPSQPDFLANHLVKELDQKKVELKMLSPYKYQYQKAVAERDLYLEQLNEMVVRYNSVTHSRRWTIPTKIINLFRRKK”, for which the “soluble on expression in E. coli” value is “not soluble”. Consider “MTNRQWETLREYDEIKYEFYEGIAKVTINRPEVRNAFTPKTVAEMIDAFSRARDDQNVSVIVLTGEGDLAFCSGGDQKKRGHGGYVGEDQIPRLNVLDLQRLIRIIPKPVIAMVKGYAVGGGNVLNVVCDLTIAADNAIFGQTGPKVGSFDAGYGSGYLARIVGHKKAREIWYLCRQYNAQEALDMGLVNTVVPLEKVEDETVQWCKEIMKHSPTALRFLKAAMNADTDGLAGLQQMAGDATLLYYTTDEAKEGRDAFKEKRDPDFDQFPKFP”, for which the “soluble on expression in E. coli” value was “soluble”. “MESRKLISATDIQYSGSLLNSLNEQRGHGLFCDVTVIVEDRKFRAHKNILSASSTYFHQLFSVAGQVVELSFIRAEIFAEILNYIYSSKIVRVRSDLLDELIKSGQLLGVKFIAAL”: the “soluble on expression in E. coli” value is listed as “soluble”. As for “MGSDKIHHHHHHMVPARHCHVAVFDQAIVALDIRRSRYFLYDAACARDFADHYLDFKPIDAPRALKPLIADRILVAESPAAARSRIADYRGWSFDAFDSGIWGSRVLGKRDAARFEWLPFWRIVRSAASLKMRGFHALAALDQLDARGAPARGDDASHTVERLLRASIWSPFRITCVQMSLALATHLRRQNVPAQLVIGVRPMPFVAHAWVEVDGRVCGDEPDLKKSYGEIYRTPRCDASAAPFGLAA”, the entry is “not soluble”; as for “MSSNNRKKLLLMGRSGSGKSSMRSIIFSNYSAFDTRRLGATIDVEHSHLRFLGNMTLNLWDCGGQDVFMENYFTKQKDHIFQMVQVLIHVFDVESTEVLKDIEIFAKALKQLRKYSPDAKIFVLLHKMDLVQLDKREELFQIMMKNLSETSSEFGFPNLIGFPTSIWDESLYKAWSQIVCSLIPNMSNHQSNLKKFKEIMNALEIILFERTTFLVICSSNGENSNENHDSSDNNNVLLDPKRFEKISNIMKNFKQSCTKLKSGFKTLILNNNIYVSELSSNMVCFIVLKDMNIPQELVLENIKKAKEFFQ”, “soluble”. Turning to “MSLELIPCGWRRYVEFRMTIVNHISPIHSVDKKGWRWFDENTKNWGFKDMIPAVILNNVNVGFLLNGEITIIAEVEVHEFIDTLNASQVEELSDDSSEDLQNKDNVTIEVNGFQVLDSQVDQVNAIFEKHPDLISNFSLKNQHIRNAYMHALLDLTKTLSKSTKELTVEDMNEADNTITDLIKAGLNLDWLRQKFDQALEKQIAYDTRIGELEKQVKKRKLAVTELEADLEKEKAAASASLMLFDEGHHHHHH”, the “soluble on expression in E. coli” value was “not soluble”. For the sequence “MSGSLEIPGLDDGLLPVETGYGLFQGTAKKRVVICNDNDKFRHSGPLPRALCGSFAAIGLLPLPVVETRPAPPPKVAPITPALQGKACGQAVFEGLRNKNAVETVDNLPALRQTARTGKRWKALESLMQETPAIIYKIVPETLWTAARAEGMFEGAAIDLTDGFIHFSTAKQVAETAARHFSGQVDLLLIAVDGAALGDKLVYEPSRGGDLFPHLYAPLPFSAVLWETPLSLDHDGQHQFPEILLEHHHHHH”, the “soluble on expression in E. coli” value was “not soluble”.

Regarding “MSLKNLHPIMLAGTGSDVGKSVIAAALCRIFKQDGYRPAPFKAQNMALNSYATPEGLEIGRAQAVQAEAAGVPCHTDMNPLLLKPSSDHTSQVVLNGRPIGNRNAFEYFRKEGREELRQEVNAAFDRLAARYNPIVMEGAGSISEINLRDTDLVNMPMACYADADVILVADIDRGGVFASVYGSVMLQTPEDKKRIKGVIINKFRGDIRLFESGVKMMEDLCGIPVLGIIPYYRNIHIEEEDSVGLDYKRMQAVEGKINIAVVLLRHLSNFTDFNRLERDERVHLYYTNNTEDLAKADIILLPGSKSTLDDLYELRRNGVAQAVLRAHREGVTVMGICGGYQLMGLEIHDPEGVEGEIRQLPGLGLLPVITTMQGEKVTRQVNFHFLENAETCQGYEIHMGETRPVPGEAVVPLNKLEDGGEDGCFVNQKCMGSYIHGILDNQAFIDYLLEPYAEKLEEGHHHHHH”, the “soluble on expression in E. coli” value was “not soluble”. As to “MIDMTSKKRAVAPRDLYRRWPWANTAGMEPDMVRLQIFVQNLERAVIGDGRMRPVTSPSEFCDNIGISHATLGRILRGEVIPRFDTIDKLERGVGRALFPPFEDVRVRGNKG”, the “soluble on expression in E. coli” value is on record as “not soluble”. As for “SWVWNQMFVLEEFSGPEPILVGRLHTDLDPGSKKIKYILSGDGAGTIFQINDITGDIHAIKRLDREEKAEYTLTAQAVDFETNKPLEPPSEFIIKVQDINDNAPEFLNGPYHATVPEMSILGTSVTNVTATDADDPVYGNSAKLVYSILEGQPYFSIEPETAIIKTALPNMDREAKEEYLVVIQAKDMGGHSGGLSGTTTLTVTLTDVNDNPPKFAQSLYHFSVPEDVVLGTAIGRVKANDQDIGENAQSSYDIIDGDGTALFEITSDAQAQDGVIRLRKPLDFETKKSYTLKVEAANIHIDPRFSSRGPFKDTATVKIVVE”, the entry is “soluble”; as for “MGDIHFIGSAANFFRSSTSDDWVRFHTFAEETLKGSQSLIALQWLVKVEPPQAETFTARMQQRFPEFTLYTVPKTGEIKYGFGTDDQAKYVLSDIYPLNYDNRKLLGFYSERERFKRILADIVVNRRPNVSDKVRLLQDGIDKSIVKDGMLVYHPVFSSEDDRSLLGVMVGVVRLSTYFEKLVQISVMEQDLDMRVIDTGFDSEDSPVLYQSPMWRADDEPKIERKLVLPNRDWVLEFELHQPINHSEELEHHHHHH”, “not soluble”. As for “MGSDKIHHHHHHSDDREMDDGRWKASALRVPLQVSSAVIKQEVVTRLAPDPVPLTEGAIGIFLSGTEPESGQEDSGYKVIDNRKYVYSEGHWGPPTANDTIYLVGNDADVCAYYPYKDSYTDKTVIPLQSQDYVETEDIYYALNTMINGFTPAITFDMVHAYSLVELKISRENYFMPCEISKITLKNSNLIKKGTINIAVDGSIHSSETGNYDLTTVTDASPHTLSVGESYVCRVLMIPVPLKIERTDAEGGEFGLSVSLVIDGQQMLVEIPYSELGEFRQGEKYVIGLKIKGTEIVPTVKALEWEDEEVNGGNKYPVE”, the entry is “not soluble”. To “GTEDTVIKVSVLRGPSVIAFADWLENPPIIDNKKVQVKVVDSPDLAQALLIKQETDIAVLPMINAANLYNKGIKIKLAGCPIWGTLYLVEKTPLKEPALYVFGNGTTPDILTRYYLGRQRLDYPLNYAFNTAGEITQGILAGKVNRAVLGEPFLSIALRKDSSLRITADLNHLTDNDTLGFAQTAVVYTPTMEKYRIAFEDALRASCQKAVRYPKETIHSLEEHGIFAQGALTPKSIERCKIYYLSAIEAKDAVMGFLRLIEQYEPKAVGGRLPDAGFIPEKQ” belongs “soluble”; to “MLLYMRFTENFERAKKEALMSLEIALRKGEVDEDIIPLLKKINSIENYFTTSSCSGRISVMEMPHFGDKVNAKWLGKWHREVSLYEVLEAIKKHRSGQLWFLVRSPILHVGAKTLEDAVKLVNLAVSCGFKYSNIKSISNKKLIVEIRSTERMDVLLGENGEIFVGEEYLNKIVEIANDQMRRFKEKLKRLESKINALNR”, “soluble”; to “MQNNSYGYAVSVRVGGKEHRHWERYDIDSDFLIPADSFDFVIGRLGPEAAIPDLSGESCEVVIDGQIVMTGIIGSQRHGKSKGSRELSLSGRDLAGFLVDCSAPQLNVKGMTVLDAAKKLAAPWPQIKAVVLKAENNPALGKIDIEPGETVWQALTHIANSVGLHPWLEPDGTLVVGGADYSSPPVATLCWSRTDSRCNIERMDIEWDTDNRFSEVTFLAQSHGRSGDSAKHDLKWVYKDPTMTLHRPKTVVVSDADNLAALQKQAKKQLADWRLEGFTLTITVGGHKTRDGVLWQPGLRVHVIDDEHGIDAVFFLMGRRFMLSRMDGTQTELRLKEDGIWTPDAYPK”, “not soluble”. As for “RAVDNAEPAALETSTRTIPTNGRTMTPVQATYWVGRQPDYALGGIATRFYMEHDITIDGPMDEWIDALRRSWNTVVQRHGMLRATVDRDGKISIADTVTEHPLPVHNADHAAEVRERLAHRTADLGTWPVHDIELTTITATTVRIHCGFDVILIDYPSIMRVLNDWGRALAGYDLGTEDTSFSDLIAQGIAEPCPSDEAYWRERAPRLLPGPLDLAEMTYDAATTPEFHRHTRTIAAQQWKQFVDNAHAHGTNASSALLAVAAHSLRHVGPRRSFTLGATFFSPDVLEHGPVGDFTRTGVVELPDTADTFAQQASAAQHELWEAFDHASVTSADIMRWRNSDTTGQALPDYPVVFTSALGHGDSTDWPGVMTWGVSQTPQVLMDLLHWESDGDLVLAWDCVDAALPENFADNAIDIAYAVIQQLTNPAVWTDPTVVADPWLRMPGPMERIGESELIDAPLRA”, the “soluble on expression in E. coli” value is reported as “not soluble”. With “MSEEAQPITLEAFAEAIRELPLSAVYAKVSEIRNSIAHLRRSNSELKAFIDETCESESDKRELEGYIAENEGVIATMNDRIGLLKTEIESRGERWIEEEIEANIKVDGDEVSTSQPIINGTAGDERPRAHEDATRRPEDRQTNEEEGVYL”, the “soluble on expression in E. coli” value is listed as “not soluble”. Take “MTLTQEKRSYMEKLSDENGIISALAFDQRGALKRLMAQYQTQEPTIAQMEELKVLVAEELTPYASSMLLDPEYGLPAAKHLDKNAGLLLAYEKTGYDTTSTKRLPDCLVEWSAKRLKKQGADAVKFLLYYDVDGDEEVNQQKQAYIERIGSECKAEDIPFFLEILAYDETITDAASVEYAKVKPHKVLDAMKVFSDERFGIDVLKVEVPVNMKYVEGFGDGPIVHTQDQAANFFKQQDQATPLPYIYLSAGVSAKLFQDTLVFAKESGANFNGVLCGRATWAGSVKDYIEKGEAAARQWLRTEGFKNIDELNKVLKATATSWKER”: the “soluble on expression in E. coli” value is recorded as “soluble”.
